Test results reported in patent publication US20110045003A1 (SYNOVEX, published 2011).
Changes are numbered by the printed parent chain. Names and notes keep the numbering of the source.

B1: humanized anti-Cad-11 antibody SDP031 (Vκ1/VH3) (antibody, IgG4, V domains shown)
VH: EVQLVQSGAEVKKPGASVKISCKASGYSFTGYFMNWVRQAPGQGLEWIGRINPYTGDTFYNQKFKGRATLTVDKSTSTAYMELSSLRSEDTAVYYCGRLGSRYWYFDVWGQGTTVTVSS
VL: DVLMTQTPLSSPVTLGQPASISCRSSQSIIHSNGNTYLEWYLQKPGQSPQLLIYKVSNRFSGVPDRFTGSGSGTDFTLKISRVEAEDVGVYYCFQGSHVPWTFGQGTKLEIK
notes: humanized IgG4 (S241P), kappa
B2: humanized anti-Cad-11 antibody SDP071 (Vκ2/VH2) (antibody, IgG4, V domains shown)
VH: B1 VH with R38K
VL: B1 VL with T68S
notes: humanized IgG4 (S241P), kappa
B3: humanized anti-Cad-11 antibody SDP061 (Vκ2/VH1) (antibody, IgG4, V domains shown)
VH: B1 VH with A9P, V11L, R38K, P41H, T76S, S84V, R87S, T91S
VL: B1 VL with T68S
notes: humanized IgG4 (S241P), kappa

Columns and labels:
[1] = molecular target: human Cadherin-11 protein expressed on 431-D-11 cells (human) (UniProt P55287); experiment: cell-based or functional assay
[2] = molecular target: T1, BSA coupled 37-mer Cad-11 peptide encompassing the Cad-11 immunogen (UniProt P55287 54-90, limits assumed, linked to BSA); experiment: ELISA on BSA coupled 37-mer cadherin peptides, coat 500 ng/ml
T1 construct: domain: 37-mer peptide encompassing the Cad-11 immunogen; also called Cad-11 antigen; Cad-11 peptide immunogen
T1 peptide (looked up): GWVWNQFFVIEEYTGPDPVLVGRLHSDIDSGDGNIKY
Experimental: (§1) A dilution series from 5 μg/ml to 8 ng/ml in a volume of 100 μl/well of each the humanized anti-Cad-11 antibodies were incubated in the peptide coated wells and incubated at 22° C. for 1 hr. Antibody solution was removed from the wells and the plate washed twice with 200 μl/well of 0.05% Tween-PBS at 22° C. and blotted dry. The goat-anti mouse IgG (Pierce # 31432) was added to each well to plate at a 1:1000 dilution, 100 μl/well and incubate at 22° C. for 30 min. The secondary antibody solution was removed and the plate washed twice with 200 μl/well of 0.05% Tween-PBS at 22° C. and blotted dry. The reaction was developed by adding 100 μl/well tetramethylbenzidine (TMB) reagent IgG (Pierce # 34022, 1 step Turbo TMB-ELISA) to plate and developed at 22° C. for 5 min.
The greatest cross reactivity was seen against Cad-8. […] This assay was repeated with the Cad-11, Cad-8 and Cad-18 antigens with a lower antigen coat concentration of 50 ng/ml and a wider dilution series of the SDP051 antibody (FIG. 41B). […] An EC50 for Cad-18 could not be established due to the low level of binding observed.

[3] = molecular target: T1, BSA coupled 37-mer Cad-11 peptide …; experiment: ELISA, BSA-coupled 37-mer cadherin peptide coated at 500 ng/ml, antibody titrated, A450
Experimental: as §1, with “Reactibind plates (ThermoScientific) were coated with 500 ng/ml of the BSA coupled cadherin 37-mer peptide (NE peptide) corresponding to Cadherins-7, -8, -9, -11, -18, -20, and -24 in 0.05% Tween (EMD, product code 9480) in PBS (pH 7.2) (Gibco(Invitrogen), #20012) at 100 μl volume/well for overnight at 4° C. The peptide containing solution was removed from the well and the plate blocked with a 2% bovine serum albumin (BSA) in PBS, 200 μl volume/well, for 2 h at 22° C. The plate was then washed twice with 200 μl/well of PBS-Tween 0.05% at 22° C. and blotted dry. A dilution” for “A dilution”

[4] = molecular target: T2, recombinant Cad-11 EC1 human IgG1 fusion protein (R&D Systems Cat. No. 1790-CA-050) (human, UniProt P55287 54-617, limits assumed); experiment: competition ELISA on coated recombinant human Cad-11 EC1 fusion; competitor biotinylated SYN0012/H1M1 at 0.1 µg/ml
T2 construct: Bought protein; the catalogue product may hold more of the extracellular region; also called recombinant human Cad-11 EC1; recombinant human Cad-11 fusion protein; not shown: human IgG1 part of the bought fusion protein
T2 sequence: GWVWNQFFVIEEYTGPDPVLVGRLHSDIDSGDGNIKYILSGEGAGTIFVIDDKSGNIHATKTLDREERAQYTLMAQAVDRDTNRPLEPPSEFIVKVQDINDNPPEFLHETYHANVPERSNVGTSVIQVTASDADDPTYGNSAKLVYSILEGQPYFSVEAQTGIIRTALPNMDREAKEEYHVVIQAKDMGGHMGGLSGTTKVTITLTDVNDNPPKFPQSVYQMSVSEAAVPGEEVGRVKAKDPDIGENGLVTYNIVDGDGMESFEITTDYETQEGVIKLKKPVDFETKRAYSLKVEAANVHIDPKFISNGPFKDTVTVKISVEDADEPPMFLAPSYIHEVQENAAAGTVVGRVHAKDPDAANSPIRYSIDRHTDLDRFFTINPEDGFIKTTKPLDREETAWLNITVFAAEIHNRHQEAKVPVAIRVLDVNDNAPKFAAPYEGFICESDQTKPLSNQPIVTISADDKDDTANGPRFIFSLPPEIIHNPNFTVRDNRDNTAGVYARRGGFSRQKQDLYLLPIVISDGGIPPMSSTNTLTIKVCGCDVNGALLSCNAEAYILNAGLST
Experimental: (§2) The binding of the purified humanized composite variant antibodies (SDP011 to SDP151) to a recombinant Cad-11 EC1 human IgG1 fusion protein was assessed in a competition binding ELISA. A dilution series from 5 μg/ml to 0.0022 μg/ml of the humanized or control (SYN0012/H1M1) antibodies was premixed with a constant concentration of biotinylated murine anti-Cad-11 antibody, SYN0012/H1M1 (0.1 μg/ml, final concentration), before incubating for 1 hour at room temperature on a Nunc Immuno MaxiSorp 96 well flat bottom microtitre plate (Fisher Cat. No. DIS-971-030J) pre-coated with 0.25 μg/ml recombinant human Cad-11 EC1 (R&D Systems Cat. No. 1790-CA-050) diluted in PBS. The binding of the biotinylated mAb was detected with streptavidin-HRP (Sigma Cat. No. 55512) and tetramethylbenzidine (TMB) substrate (Invitrogen Cat. No. 00-2023).
The relative IC50 was calculated by dividing the value for the test antibody by that of SYN0012. Antibody expression levels given are for static cultures in T flasks. PI are calculated.

[5] = molecular target: T2, recombinant Cad-11 EC1 human IgG1 …; experiment: competition ELISA on coated recombinant human Cad-11 EC1 fusion protein; competitor biotinylated SYN0012 at 0.1 µg/ml, streptavidin-HRP, OD450
Experimental: as §2

Molecule	in vitro cell aggregation assay [1] [µg/mL]	fold greater binding to the Cad-11 antigen than to the related antigens from the other cadherins [2] [fold]	EC50 (read off the curve) [3] [µg/mL]	relative IC50 (IC50 of the test antibody divided by that of SYN0012) [4]	IC50 (read off the curve) [5] [µg/mL]
human Cad-11-EC1-hIgG2-Fc1 fusion protein (Fc fusion)	3				
B1		> 20	~0.06	0.84 ratio (column head prints µg/mL)	~0.2
B2		> 20	~0.07	0.33 ratio (column head prints µg/mL)	
B3		> 20	~0.06	0.47 ratio (column head prints µg/mL)	
